Key:
Test in all cases: SPR
KIR3DL1-Fc = KIR3DL1-Fc (human, UniProt P43629)
KIR3DS1-Fc = KIR3DS1-Fc (human, UniProt Q14943)
KIR3DL2-Fc = KIR3DL2-Fc (human, UniProt P43630)
KIR3DL2-Fc, sequence (P43630 22-340): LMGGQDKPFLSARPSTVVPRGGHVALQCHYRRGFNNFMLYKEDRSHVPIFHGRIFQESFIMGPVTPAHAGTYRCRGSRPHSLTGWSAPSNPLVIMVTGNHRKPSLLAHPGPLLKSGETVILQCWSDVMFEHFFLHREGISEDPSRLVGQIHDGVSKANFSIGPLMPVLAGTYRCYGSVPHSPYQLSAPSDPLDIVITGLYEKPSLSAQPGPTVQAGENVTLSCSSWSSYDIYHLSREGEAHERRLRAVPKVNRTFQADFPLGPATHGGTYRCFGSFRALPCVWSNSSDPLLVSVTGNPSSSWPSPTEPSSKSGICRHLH

KIR3DS1-Fc, sequence (Q14943 22-340): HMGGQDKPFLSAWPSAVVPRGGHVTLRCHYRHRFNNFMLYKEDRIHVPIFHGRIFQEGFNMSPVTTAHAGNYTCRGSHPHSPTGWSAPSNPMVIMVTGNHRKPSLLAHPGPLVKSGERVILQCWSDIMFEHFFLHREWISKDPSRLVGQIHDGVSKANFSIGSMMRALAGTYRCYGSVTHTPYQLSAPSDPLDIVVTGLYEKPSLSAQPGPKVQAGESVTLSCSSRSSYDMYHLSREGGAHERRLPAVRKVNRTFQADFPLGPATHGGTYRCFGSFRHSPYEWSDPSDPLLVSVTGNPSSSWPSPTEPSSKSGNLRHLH
KIR3DL1-Fc, sequence (P43629 22-340): as the sequence (Q14943 22-340) above, with V47I, G58S, M92V, R136K, W138G, S163P, R166L, L199P, L315P counted along it

Kd (KIR3DL1-Fc): 157 nM
koff (KIR3DL1-Fc): 0.00691 s⁻¹
kon (KIR3DL1-Fc): 44000 M⁻¹ s⁻¹
Kd (KIR3DS1-Fc): 25 nM
koff (KIR3DS1-Fc): 0.0007 s⁻¹
kon (KIR3DS1-Fc): 28400 M⁻¹ s⁻¹
Kd (KIR3DL2-Fc): 118 nM
koff (KIR3DL2-Fc): 0.00508 s⁻¹
kon (KIR3DL2-Fc): 43000 M⁻¹ s⁻¹
B1: HLA-F open conformer (natural protein)
MHC heavy: GSHSLRYFSTAVSRPGRGEPRYIAVEYVDDTQFLRFDSDAAIPRMEPREPWVEQEGPQYWEWTTGYAKANAQTDRVALRNLLRRYNQSEAGSHTLQGMNGCDMGPDGRLLRGYHQHAYDGKDYISLNEDLRSWTAADTVAQITQRFYEAEEYAEEFRTYLEGECLELLRRYLENGKETLQRADPPKAHVAHHPISDHEATLRCWALGFYPAEITLTWQRDGEEQTQDTELVETRPAGDGTFQKWAAVVVPPGEEQRYTCHVQHEGLPQPLILRWEQSPQPTIPI
modifications: biotin (biotinylated monomer, site not stated)
